In publication PMC4182348 (PLoS ONE, 2014):

Tests used:
[1] = target: tetanus toxin fragment C of the heavy chain; experiment: ELISA; conditions: one partner purified
[2] = target: T1, tetanus toxin light chain (Clostridium tetani, strain  …, UniProt P04958); experiment: ELISA; conditions: one partner purified
T1 construct: source: bought: List Biological Laboratories
T1 sequence (P04958 1-457): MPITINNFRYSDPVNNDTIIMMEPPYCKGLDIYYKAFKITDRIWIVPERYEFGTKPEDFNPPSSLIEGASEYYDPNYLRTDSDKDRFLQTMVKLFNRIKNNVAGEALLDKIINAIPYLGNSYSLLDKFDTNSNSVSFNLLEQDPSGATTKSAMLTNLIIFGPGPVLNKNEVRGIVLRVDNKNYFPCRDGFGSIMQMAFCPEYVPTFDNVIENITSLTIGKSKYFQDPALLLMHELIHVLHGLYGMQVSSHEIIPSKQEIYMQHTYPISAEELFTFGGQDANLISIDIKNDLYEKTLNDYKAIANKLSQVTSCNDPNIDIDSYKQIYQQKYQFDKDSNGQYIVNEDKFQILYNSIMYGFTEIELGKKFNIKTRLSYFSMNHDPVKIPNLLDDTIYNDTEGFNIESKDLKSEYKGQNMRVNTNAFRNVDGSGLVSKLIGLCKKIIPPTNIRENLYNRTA

Chain of tetanus toxin fragment C of the heavy chain (P04958 865-1315 limits assumed): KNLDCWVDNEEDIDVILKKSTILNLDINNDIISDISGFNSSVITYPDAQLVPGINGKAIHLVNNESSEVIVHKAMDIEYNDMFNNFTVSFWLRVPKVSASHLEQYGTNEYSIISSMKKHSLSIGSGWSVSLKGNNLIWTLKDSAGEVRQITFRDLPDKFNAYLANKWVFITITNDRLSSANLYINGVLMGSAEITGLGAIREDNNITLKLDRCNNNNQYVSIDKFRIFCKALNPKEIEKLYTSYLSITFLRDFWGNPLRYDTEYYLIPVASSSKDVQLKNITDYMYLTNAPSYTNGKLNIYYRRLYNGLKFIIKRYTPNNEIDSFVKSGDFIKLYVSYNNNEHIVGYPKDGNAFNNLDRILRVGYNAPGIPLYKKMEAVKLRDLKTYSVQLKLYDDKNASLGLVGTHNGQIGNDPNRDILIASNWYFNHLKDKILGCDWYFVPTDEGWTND

B1: anti-TT mAb of hybridoma 24 (antibody, V domains shown)
VH: VQLQQTGPGLVQPSQSLSITCTVSAFSLTNYGIHWVRQSPGKGLEWLGVIWTGGSTDYNAPFISRLSISKDNSKSQVFFKMNSLQANDTAIYYCVRDGYRVMDYWGQGTSVTVSS
VL: LSASVGETVTITCRASGNIHNYLAWYQQKQGKSPQLLVYNAKTLTDGVPSRFSGSGSGTQHSLKINSLQPEDFGSYYCQHFWTIPWTFGGGTKLEIK
B1: binds [1]; no binding [2].

B2: anti-TT mAb of hybridoma 14 (antibody, V domains shown)
VH: VQLQESGPGLVAPSQSLSITCTVSGFSLTSYGVHWVRQPPGKGLEWLGVIWPGGSTNYNSALMSRLSISQDNSKSQVFLKMNSLQIDDTAMYHCARDFQYGNYFDYWGQGTSLTVSS
VL: MPASPGEKITITCSASSSISSNYLHWYQQKPGFSPKLLIYRTSNLASGVPARFSGSGSGTSYSLTVGTMEAEDVATYYCQQGTSIPTFGAGTKLELK
B2: no binding [1]; no binding [2].
